According to US20220177587A1, “METHODS AND USES OF VARIANT CD80 FUSION PROTEINS AND RELATED CONSTRUCTS” (Alpine Immune Sciences, Inc., priority 2018, published 2022):
Residue numbers refer to the chain shown, from its start. In names and notes the source's numbering stands.

How the values were obtained:
[1] = molecular target: T1, CD28 (Homo sapiens, UniProt P10747); assay: Jurkat/IL2 + CHO/OKT3 +/- PD-L1 reporter assay: PD-L1-dependent CD28 costimulation; format: cell-based; set-up: host or cells: Jurkat cells expressing an IL-2-luciferase reporter; settings: Jurkat/IL2 + CHO/OKT3/PD-L1
Description: Jurkat cells were then plated at 50 μL/well for a total of 100,000 cells per well.
To each well, 25 μL of test protein was added to the Jurkat cells. […] The Jurkat cells with test or control proteins were incubated for 15 minutes at room temperature. CHO-derived artificial antigen presenting cells (aAPC) displaying transduced cell surface anti-CD3 single chain Fv (OKT3) (i.e., no PD-L1), or OKT3 and PD-L1 (i.e., +PD-L1), were brought to 0.8×10^6 cells/mL, and 25 μL of cells were added to each well, bringing the final volume of each well to 100 μL. […] Jurkat cells and CHO cells were incubated for 5 hours at 37 degrees Celsius in a humidified 5% CO2 incubation chamber. Plates were then removed from the incubator and acclimated to room temperature for 15 minutes. 100 μL of a cell lysis and luciferase substrate solution (BioGlo luciferase reagent, Promega) were added to each well and the plates were incubated on an orbital shaker for 10 minutes. Luminescence was measured with a 1 second per well integration time using a BioTek Cytation luminometer, and a relative luminescence value (RLU) was determined for each test sample.

[2] = molecular target: T1, CD28; assay: Flow binding to Jurkat/IL2 reporter cells (CD28); set-up: host or cells: Jurkat cells expressing an IL-2-luciferase reporter; settings: 33.3 nM
Description: (§1) Binding of selected immunomodulatory fusion proteins to cognate binding partners was assessed. […] Cells were sorted in a Bio-Rad S3 Cell Sorter (Bio-Rad Corp., USA) to >98% purity. Jurkat/IL2 reporter cells, which endogenously express CD28, were used to detect binding to CD28.
(§2) For staining and analysis by flow cytometry, 100,000 cells of appropriate transfected cells were plated in 96-well round bottom plates. Cells were spun down and resuspended in staining buffer (phosphate buffered saline (PBS), 1% bovine serum albumin (BSA), and 0.1% sodium azide) for 20 minutes to block non-specific binding. […] Primary staining was performed on ice for 45 minutes, before washing cells in staining buffer twice. Phycoerythrin (PE)-conjugated anti-human Fc (Jackson ImmunoResearch, USA) was diluted 1:150, added to cells and incubated another 30 minutes on ice. Cells were then washed twice with 150 μL/well stain buffer, fixed in 2% formaldehyde/PBS, and analyzed on Intellicyt flow cytometer (Intellicyt Corp., USA). PE Mean Fluorescence Intensity (MFI) was calculated for each cell type with FlowJo Version 10 software (FlowJo LLC, USA).
(§3) Binding assays were carried out to assess the specificity and affinity of multivalent proteins to cell-expressed CTLA-4, CD28, and PD-L1 counter structures.
(§4) The EC50 for binding also was determined.

[3] = molecular target: huPD-L1 (Homo sapiens, UniProt Q9NZQ7); assay: Flow binding to CHO cells stably expressing PD-L1; set-up: huCTLA4 and huPD-L1, full-length mammalian surface expression constructs were generated; expressed in transfected cells; host or cells: CHO cells, lentiviral transduction, sorted to >98% purity; settings: CHO cells stably expressing PD-L1
Chain of huPD-L1 (Q9NZQ7 19-290): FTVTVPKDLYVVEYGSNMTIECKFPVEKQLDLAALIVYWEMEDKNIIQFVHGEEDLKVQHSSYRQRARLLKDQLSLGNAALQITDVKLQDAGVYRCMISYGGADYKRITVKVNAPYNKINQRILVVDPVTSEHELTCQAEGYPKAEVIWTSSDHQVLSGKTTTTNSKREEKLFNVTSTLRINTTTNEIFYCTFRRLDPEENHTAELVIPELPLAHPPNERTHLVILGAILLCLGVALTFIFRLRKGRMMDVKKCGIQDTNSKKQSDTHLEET
Description: as §1, §2, §3, §4

[4] = molecular target: huCTLA4 (Homo sapiens, UniProt P16410); assay: Flow binding to CHO cells stably expressing CTLA4; set-up: huCTLA4 and huPD-L1, full-length mammalian surface expression constructs were generated; expressed in transfected cells; host or cells: CHO cells, lentiviral transduction, sorted to >98% purity; settings: CHO cells stably expressing CTLA4
Chain of huCTLA4 (P16410 36-223): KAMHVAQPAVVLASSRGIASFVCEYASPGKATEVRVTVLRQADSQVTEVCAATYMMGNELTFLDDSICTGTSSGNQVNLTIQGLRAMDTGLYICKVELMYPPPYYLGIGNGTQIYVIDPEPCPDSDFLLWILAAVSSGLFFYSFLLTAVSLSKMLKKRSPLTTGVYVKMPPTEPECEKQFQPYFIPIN
Description: as §1, §2, §3, §4

[5] = Table E23, CD80 IgV-Fc (inert) at 33.3 nM
[6] = Table E16, consensus variants, Jurkats (CD28)

B1: V22D/E24D/E35D/M47L/V68M (protein)
chain: VIHVTKEVKEVATLSCGHNVSDEDLAQTRIYWQKDKKMVLTMMSGDLNIWPEYKNRTIFDITNNLSIMILALRPSDEGTYECVVLKYEKDAFKREHLAEVTLSVKADFPTPSISDFETPTSNIRRIICSTSGGFPEPHLSWLENGEELNAINTTVSQDPETELYAVSSKLDFNMTTNHSFMCLIKYGHLRVNQTFNWNTTKQEHFPDN
modifications: CD80 v383 ECD
Relative Luciferase Units (RLU), CD80 Cone 5.0 nM ([1]; Table E13, 5.0 nM): 974 RLU
CD28 MFI at 33.3 nM ([2]; Table E11, Jurkats (CD28)): 1254
PD-L1 MFI at 33.3 nM ([3]; Table E11, 33.3 nM): 15418

B2: E35D/D46E/M47L/V68M/T79M/L85M (protein, UniProt P33681 35-288, looked up, variant E35D D46E M47L V68M T79M L85M)
T-lymphocyte activation …: VIHVTKEVKEVATLSCGHNVSVEELAQTRIYWQKDKKMVLTMMSGELNIWPEYKNRTIFDITNNLSIMILALRPSDEGMYECVVMKYEKDAFKREHLAEVTLSVKADFPTPSISDFEIPTSNIRRIICSTSGGFPEPHLSWLENGEELNAINTTVSQDPETELYAVSSKLDFNMTTNHSFMCLIKYGHLRVNQTFNWNTTKQEHFPDNLLPSWAITLISVNGIFVICCLTYCFAPRCRERRRNERLRRESVRPV
Relative Luciferase Units (RLU), CD80 Cone 5.0 nM ([1]; Table E13, 5.0 nM): 1137 RLU
CD28 MFI at 33.3 nM ([2]; Table E11, Jurkats (CD28)): 403
PD-L1 MFI at 33.3 nM ([3]; Table E11, 33.3 nM): 8641

B3: H18R/A26P/E35D/D46N/M47V/V68M/A71G/D90P (protein, UniProt P33681 35-288, looked up, variant H18R A26P E35D D46N M47V V68M A71G D90P)
T-lymphocyte activation …: B2 T-lymphocyte activation … with H18R, A26P, E46N, L47V, A71G, M79T, M85L, D90P
modifications: Fc fusion
Relative Luciferase Units (RLU), CD80 Conc 5.0 nM ([1]; Table E24, 5.0 nM): 972 RLU
CTLA4 MFI at 33.3 nM [4, 5]: 17327
PD-L1 MFI at 33.3 nM [3, 5]: 29306

B4: E35D/M47V/N48K/V68M/K89N GS(G4S)3 (protein, UniProt P33681 35-288, looked up, variant E35D M47V N48K V68M K89N)
T-lymphocyte activation …: B2 T-lymphocyte activation … with E46D, L47V, N48K, M79T, M85L, K89N
modifications: GS(G4S)3 linker
Relative Luciferase Units (RLU), CD80 Conc 5.0 nM ([1]; Table E26, linker variants, 5.0 nM): 1400 RLU
CD28 MFI at 33.3 nM ([2]; Table E25, linker variants, Jurkats (CD28)): 2109

B5: H18Y/E35D/V68M/L85M/R94Q (protein, UniProt P33681 35-288, looked up, variant H18Y E35D V68M L85M R94Q)
T-lymphocyte activation …: B2 T-lymphocyte activation … with H18Y, E46D, L47M, M79T, R94Q
Relative Luciferase Units (RLU), CD80 Cone 5.0 nM ([1]; Table E13, 5.0 nM): 195 RLU
Relative Luciferase Units (RLU), CD80 Cone 5.0 nM ([1]; Table E17, consensus variants, 5.0 nM): 2215 RLU
CD28 MFI at 33.3 nM ([2]; Table E11, Jurkats (CD28)): 14
CD28 MFI at 33.3 nM [2, 6]: 962
PD-L1 MFI at 33.3 nM ([3]; Table E11, 33.3 nM): 14410
PD-L1 MFI at 33.3 nM ([3]; Table E16, consensus variants, 33.3 nM): 9283

B6: H18V/A26P/E35D/M47V/V68L/A71G (protein, UniProt P33681 35-288, looked up, variant H18V A26P E35D M47V V68L A71G)
T-lymphocyte activation …: B2 T-lymphocyte activation … with H18V, A26P, E46D, L47V, M68L, A71G, M79T, M85L
Relative Luciferase Units (RLU), CD80 Conc 5.0 nM ([1]; Table E24, 5.0 nM): 881 RLU
CTLA4 MFI at 33.3 nM [4, 5]: 13669
PD-L1 MFI at 33.3 nM [3, 5]: 55417

B7: E35D/M47L/V68M/E95V/L97Q (protein, UniProt P33681 35-288, looked up, variant E35D M47L V68M E95V L97Q)
T-lymphocyte activation …: B2 T-lymphocyte activation … with E46D, M79T, M85L, E95V, L97Q
modifications: Fc fusion
Relative Luciferase Units (RLU), CD80 Cone 5.0 nM ([1]; Table E13, 5.0 nM): 1086 RLU
CD28 MFI at 33.3 nM ([2]; Table E11, Jurkats (CD28)): 14
PD-L1 MFI at 33.3 nM ([3]; Table E11, 33.3 nM): 18600

B8: H18Y/E35D/M47I/V68M/Y87N (protein, UniProt P33681 35-288, looked up, variant H18Y E35D M47I V68M Y87N)
T-lymphocyte activation …: B2 T-lymphocyte activation … with H18Y, E46D, L47I, M79T, M85L, Y87N
modifications: Fc fusion
CD28 MFI at 33.3 nM ([2]; Table E11, Jurkats (CD28)): 4038
CD28 MFI at 33.3 nM [2, 6]: 1429

B9: E35D/M47V/N48I/L85Q (protein)
chain: VIHVTKEVKEVATLSCGHNVSVEELAQTRIYWQKDKKMVLTMMSGDVTIWPEYKNRTIFDITNNLSIVILALRPSDEGTYECVVQKYEKDAFKREHLAEVTLSVKAD
CD28 MFI at 33.3 nM ([2]; Table E4, Jurkat cells (CD28)): 692

B10: E35D/N48K/L72V (protein)
chain: B9 chain with V47M, T48K, L72V, Q85L
Relative Luciferase Units (RLU), CD80 Cone 5.0 nM ([1]; Table E12, 5.0 nM): 1731 RLU
CD28 MFI at 33.3 nM ([2]; Table E10, Jurkats (CD28)): 582
PD-L1 MFI at 33.3 nM ([3]; Table E10, 33.3 nM): 3031

B11: A26E/V68M/A71G/D90G (protein)
chain: B9 chain with A26E, D35E, V47M, T48N, V68M, A71G, Q85L, D90G
Relative Luciferase Units (RLU), CD80 Conc 5.0 nM ([1]; Table E22, CD80 Conc 5.0 nM): 590 RLU
CTLA4 MFI at 33.3 nM ([4]; Table E20, 33.3 nM): 8666
PD-L1 MFI at 33.3 nM ([3]; Table E20, 33.3 nM): 3195

B12: E35D/L97R (protein)
chain: B9 chain with V47M, T48N, Q85L, L97R
Relative Luciferase Units (RLU), CD80 Cone 5.0 nM ([1]; Table E12, 5.0 nM): 914 RLU
CD28 MFI at 33.3 nM ([2]; Table E10, Jurkats (CD28)): 44.6
PD-L1 MFI at 33.3 nM ([3]; Table E10, 33.3 nM): 2614

B13: E35D/N48K/V68M/K89N (protein)
chain: B9 chain with V47M, T48K, V68M, Q85L, K89N
CD28 MFI at 33.3 nM ([2]; Table E19, Jurkats (CD28)): 1534
PD-L1 MFI at 33.3 nM ([3]; Table E19, 33.3 nM): 17425

B14: E35D/M47L/V68M/A71G (protein)
chain: B9 chain with V47L, T48N, V68M, A71G, Q85L
Relative Luciferase Units (RLU), CD80 Conc 5.0 nM ([1]; Table E22, CD80 Conc 5.0 nM): 745 RLU
CTLA4 MFI at 33.3 nM ([4]; Table E20, 33.3 nM): 24656
PD-L1 MFI at 33.3 nM ([3]; Table E20, 33.3 nM): 27872

B15: E35D/M47V/N48K/L85M (protein)
chain: B9 chain with T48K, Q85M
Relative Luciferase Units (RLU), CD80 Cone 5.0 nM ([1]; Table E12, 5.0 nM): 2116 RLU
CD28 MFI at 33.3 nM ([2]; Table E10, Jurkats (CD28)): 413
PD-L1 MFI at 33.3 nM ([3]; Table E10, 33.3 nM): 5660

B16: T13R/E35D/M47LN68M (protein)
chain: B9 chain with T13R, V47L, T48N, V68M, Q85L
CD28 MFI at 33.3 nM ([2]; Table E11, Jurkats (CD28)): 15.6
PD-L1 MFI at 33.3 nM ([3]; Table E11, 33.3 nM): 19969
